Results reported in patent US20240182536A1 (MURAL ONCOLOGY, published 2024).

How the values were obtained:
[1] = target: T1, IL-18 binding protein (IL-18BP) (UniProt O95998 31-194); assay: cell-based or functional assay
T1 sequence (looked up): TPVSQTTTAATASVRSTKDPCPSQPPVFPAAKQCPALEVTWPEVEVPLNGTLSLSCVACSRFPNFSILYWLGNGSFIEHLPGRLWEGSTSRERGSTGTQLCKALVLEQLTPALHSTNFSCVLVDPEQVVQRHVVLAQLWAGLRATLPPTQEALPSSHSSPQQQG

[2] = target: T2, IL-18 receptors on HEK-Blue IL-18 reporter cells (UniProt Q13478 19-541; O95256 20-599, limits assumed); assay: cell-based or functional assay
T2 sequence (looked up) 1: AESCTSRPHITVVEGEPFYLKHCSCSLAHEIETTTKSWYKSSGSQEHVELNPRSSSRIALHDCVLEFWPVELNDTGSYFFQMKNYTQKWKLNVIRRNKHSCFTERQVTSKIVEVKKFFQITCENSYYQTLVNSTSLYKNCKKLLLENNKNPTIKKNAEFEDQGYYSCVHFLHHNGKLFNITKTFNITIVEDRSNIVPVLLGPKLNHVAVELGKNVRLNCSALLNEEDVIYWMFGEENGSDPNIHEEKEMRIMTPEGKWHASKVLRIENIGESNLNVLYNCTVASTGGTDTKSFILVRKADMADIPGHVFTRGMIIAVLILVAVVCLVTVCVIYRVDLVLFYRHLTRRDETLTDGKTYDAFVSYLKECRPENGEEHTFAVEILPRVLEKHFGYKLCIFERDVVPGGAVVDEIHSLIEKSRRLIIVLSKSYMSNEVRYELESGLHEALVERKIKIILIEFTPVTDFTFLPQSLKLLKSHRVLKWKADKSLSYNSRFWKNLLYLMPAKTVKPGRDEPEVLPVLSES
T2 sequence (looked up) 2: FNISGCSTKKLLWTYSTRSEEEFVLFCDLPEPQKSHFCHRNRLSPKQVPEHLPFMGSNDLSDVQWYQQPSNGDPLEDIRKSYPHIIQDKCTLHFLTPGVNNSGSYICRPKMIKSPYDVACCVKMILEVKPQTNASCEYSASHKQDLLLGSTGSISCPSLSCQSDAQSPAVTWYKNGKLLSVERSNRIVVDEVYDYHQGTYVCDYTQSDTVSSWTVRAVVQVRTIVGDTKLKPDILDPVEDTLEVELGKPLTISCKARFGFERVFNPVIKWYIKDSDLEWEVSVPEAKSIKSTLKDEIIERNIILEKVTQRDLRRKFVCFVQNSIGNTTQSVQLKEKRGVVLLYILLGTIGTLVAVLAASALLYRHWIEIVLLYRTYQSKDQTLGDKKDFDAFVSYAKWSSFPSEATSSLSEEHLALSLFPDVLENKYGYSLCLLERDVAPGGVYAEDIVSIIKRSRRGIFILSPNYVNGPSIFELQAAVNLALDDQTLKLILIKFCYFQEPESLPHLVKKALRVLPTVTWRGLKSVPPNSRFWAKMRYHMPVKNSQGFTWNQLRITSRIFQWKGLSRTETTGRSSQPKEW

B1: IL-18 variant G3Q, E6Q, K53T, D54W, S55F, N91Y (ligand)
chain: YFQKLQSKLSVIRNLNDQVLFIDQGNRPLFEDMTDSDMRDNAPRTIFIISMYTWFQPRGMAVTISVKSEKISTLSSENKIISFKEMNPPDYIKDTKSDIIFFQRSVPGHDNKMQFESSSYEGYFLASEKERDLFKLILKKEDELGDRSIMFTVQNED
- Activity, +100 nM BP, DF-1000002 [1]: 1.14
- Activity, +100 nM BP, DF-5000003 [1]: 0.45
- Activity, +100 nM BP, DF-25000004 [1]: 0.14
- Ratio (-BP/+BP), DF-1000005 [1]: 1.08
- Ratio (-BP/+BP), DF-5000006 [1]: 1.21
- Ratio (-BP/+BP), DF-25000007 [1]: 1.2
- Activity, No BP, DF-100000 [2]: 1.23
- Activity, No BP, DF-500000 [2]: 0.54
- Activity, No BP, DF-2500000 [2]: 0.17

B2: IL-18 variant G3T, E6Q, K53G, D54G, S55H, T63A, S65T, N91R, R104Q (ligand)
chain: YFTKLQSKLSVIRNLNDQVLFIDQGNRPLFEDMTDSDMRDNAPRTIFIISMYGGHQPRGMAVAITVKSEKISTLSSENKIISFKEMNPPDRIKDTKSDIIFFQQSVPGHDNKMQFESSSYEGYFLASEKERDLFKLILKKEDELGDRSIMFTVQNED
- Activity, +100 nM BP, DF-1000002 [1]: 0.49
- Activity, +100 nM BP, DF-5000003 [1]: 0.18
- Activity, +100 nM BP, DF-25000004 [1]: 0.11
- Ratio (-BP/+BP), DF-1000005 [1]: 1.19
- Ratio (-BP/+BP), DF-5000006 [1]: 1.03
- Ratio (-BP/+BP), DF-25000007 [1]: 1.14
- Activity, No BP, DF-100000 [2]: 0.58
- Activity, No BP, DF-500000 [2]: 0.18
- Activity, No BP, DF-2500000 [2]: 0.12

B3: IL-18 variant G3P, E6R, D54W, S55Q, T63S, N91T, R104H (ligand)
chain: YFPKLRSKLSVIRNLNDQVLFIDQGNRPLFEDMTDSDMRDNAPRTIFIISMYKWQQPRGMAVSISVKSEKISTLSSENKIISFKEMNPPDTIKDTKSDIIFFQHSVPGHDNKMQFESSSYEGYFLASEKERDLFKLILKKEDELGDRSIMFTVQNED
- Activity, +100 nM BP, DF-1000002 [1]: 0.89
- Activity, +100 nM BP, DF-5000003 [1]: 0.26
- Activity, +100 nM BP, DF-25000004 [1]: 0.12
- Ratio (-BP/+BP), DF-1000005 [1]: 0.83
- Ratio (-BP/+BP), DF-5000006 [1]: 0.96
- Ratio (-BP/+BP), DF-25000007 [1]: 0.78
- Activity, No BP, DF-100000 [2]: 0.74
- Activity, No BP, DF-500000 [2]: 0.25
- Activity, No BP, DF-2500000 [2]: 0.09

B4: IL-18 variant G3Y, E6S, K53S, D54W, S55L, N91I (ligand)
chain: YFYKLSSKLSVIRNLNDQVLFIDQGNRPLFEDMTDSDMRDNAPRTIFIISMYSWLQPRGMAVTISVKSEKISTLSSENKIISFKEMNPPDIIKDTKSDIIFFQRSVPGHDNKMQFESSSYEGYFLASEKERDLFKLILKKEDELGDRSIMFTVQNED
- Activity, +100 nM BP, DF-1000002 [1]: 0.78
- Activity, +100 nM BP, DF-5000003 [1]: 0.26
- Activity, +100 nM BP, DF-25000004 [1]: 0.12
- Ratio (-BP/+BP), DF-1000005 [1]: 0.9
- Ratio (-BP/+BP), DF-5000006 [1]: 0.95
- Ratio (-BP/+BP), DF-25000007 [1]: 1.22
- Activity, No BP, DF-100000 [2]: 0.7
- Activity, No BP, DF-500000 [2]: 0.24
- Activity, No BP, DF-2500000 [2]: 0.15

B5: IL-18 variant G3P, E6V, K53A, D54W, S55P, T63S, N91L, R104K (ligand)
chain: YFPKLVSKLSVIRNLNDQVLFIDQGNRPLFEDMTDSDMRDNAPRTIFIISMYAWPQPRGMAVSISVKSEKISTLSSENKIISFKEMNPPDLIKDTKSDIIFFQKSVPGHDNKMQFESSSYEGYFLASEKERDLFKLILKKEDELGDRSIMFTVQNED
- Activity, +100 nM BP, DF-1000002 [1]: 1.21
- Activity, +100 nM BP, DF-5000003 [1]: 0.57
- Activity, +100 nM BP, DF-25000004 [1]: 0.18
- Ratio (-BP/+BP), DF-1000005 [1]: 0.98
- Ratio (-BP/+BP), DF-5000006 [1]: 0.9
- Ratio (-BP/+BP), DF-25000007 [1]: 1.04
- Activity, No BP, DF-100000 [2]: 1.18
- Activity, No BP, DF-500000 [2]: 0.52
- Activity, No BP, DF-2500000 [2]: 0.19

B6: IL-18 variant G3P, E6V, K53A, D54W, S55P, T63S, N91L, R104K, Q154R (ligand)
chain: YFPKLVSKLSVIRNLNDQVLFIDQGNRPLFEDMTDSDMRDNAPRTIFIISMYAWPQPRGMAVSISVKSEKISTLSSENKIISFKEMNPPDLIKDTKSDIIFFQKSVPGHDNKMQFESSSYEGYFLASEKERDLFKLILKKEDELGDRSIMFTVRNED
- Activity, +100 nM BP, DF-1000002 [1]: 0.6
- Activity, +100 nM BP, DF-5000003 [1]: 0.19
- Activity, +100 nM BP, DF-25000004 [1]: 0.09
- Ratio (-BP/+BP), DF-1000005 [1]: 0.94
- Ratio (-BP/+BP), DF-5000006 [1]: 0.96
- Ratio (-BP/+BP), DF-25000007 [1]: 0.91
- Activity, No BP, DF-100000 [2]: 0.56
- Activity, No BP, DF-500000 [2]: 0.18
- Activity, No BP, DF-2500000 [2]: 0.08
